Reference: patent publication US20210301293, “DNA APTAMERS, METHOD FOR INHIBITING HUMAN GALECTIN-1 AND METHOD OF TREATING A MAMMAL IN NEED THEREOF” (published 2021)

Legend:
[1] = molecular target: T1, human galectin-1 (hGal1), native (Homo sapiens, UniProt P09382 SEQ:1-134); assay: thermal shift assay; results stated similar to SEQ ID NO 4 and 9; settings: tags: expressed in E. coli M-15, lactosyl-Sepharose purified; chain copies: 2
Protocol: (§1) Thermofluor experiments were performed on an Mx3005 RT-PCR (Agilent Technologies) using the SYPRO® Orange dye (492/610 nm) (Invitrogen) as fluorescent probe. The purified (native and alkylated) protein samples were incubated for 30 min with increasing concentration of the molecules of interest, centrifuged, and submitted to the thermal denaturation assay, totalizing four distinct experiments. In a 96-well plate (Agilent Technologies) 20 μl of the reaction containing 5 μM of each protein in buffer PBS 1× and 5× SYPRO® Orange were heated from 25° C. to 95° C. at a rate of 1° C./min. The experimental result was processed as in the protocol previously described and the melting temperature was obtained using GraphPad Prism software (www.graphpad.com).

[2] = molecular target: T1, human galectin-1 (hGal1), native; assay: thermal shift assay; among the four with greatest Tm variation; settings: tags: expressed in E. coli M-15, lactosyl-Sepharose purified; chain copies: 2
Protocol: as §1

T1 sequence (P09382 2-135): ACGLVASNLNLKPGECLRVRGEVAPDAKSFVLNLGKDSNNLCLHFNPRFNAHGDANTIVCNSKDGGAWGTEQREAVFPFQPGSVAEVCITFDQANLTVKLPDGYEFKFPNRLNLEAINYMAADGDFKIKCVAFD

Row | Binder | binding result [1] | binding result [2]
1 | SEQ ID NO. 10 (ssDNA) DNA: AGCTGACACAGCAGGTTGGTGCCAACAAGAAAAGAAACCGTTACAGAAGACACTACAGAATAAGTGAAAAGCCGAGTCGAGCAATCTCGAAAT | binds | 
2 | SEQ ID NO. 9 (ssDNA) DNA: AGCTGACACAGCAGGTTGGTGCCCAAAAGAGCCAATCCACGACGACACCCCAAAAACCATATCACGAATACCCGAGTCGAGCAATCTCGAAAT |  | binds
3 | SEQ ID NO. 12 (ssDNA) DNA: AGCTGACACAGCAGGTTGGTGCGCCCAATACAGGCGCAGTATCTGTCCGTGGGCCGGGTAAAAGTTACGGACCGAGTCGAGCAATCTCGAAAT | binds | 
